8 molecules from publication PMC6290019 (2018) can be followed below.

The target in assay [1] is colE of designed pair 6 (cognate colE of Im^des6). As to the kind of experiment: SPR; two-state reaction fit.
Assay [2] has the same target. As to the kind of experiment: SPR; two-state reaction fit, koff1.
The target is the same in assay [3]. Kind of assay: SPR; two-state reaction fit, koff2.
Assay [4] addresses T1, Im^des7.
T1 chain: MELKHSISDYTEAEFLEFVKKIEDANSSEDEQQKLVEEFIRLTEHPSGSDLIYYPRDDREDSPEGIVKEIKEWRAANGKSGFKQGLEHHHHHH
As to the kind of experiment: SPR; two-state reaction fit, koff1.

For assay [5], the target named is T1, Im^des7. As to the kind of experiment: SPR; two-state reaction fit, koff2.
A further assay has as its target colE^des8. Kind of assay: SPR.
The target of another assay is T2, Im^des3.
T2 chain: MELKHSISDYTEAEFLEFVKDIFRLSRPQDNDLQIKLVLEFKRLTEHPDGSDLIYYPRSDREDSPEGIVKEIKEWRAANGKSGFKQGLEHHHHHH
Kind of assay: SPR.

The target of assay [6] is T3, Im^wt2 (Escherichia coli, UniProt P04482 1-86).
T3 chain: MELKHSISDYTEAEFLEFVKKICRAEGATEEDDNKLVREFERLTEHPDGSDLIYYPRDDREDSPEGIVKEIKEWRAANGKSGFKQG
Kind of assay: SPR.

A further assay deals with T4, Im^des8.
T4 chain: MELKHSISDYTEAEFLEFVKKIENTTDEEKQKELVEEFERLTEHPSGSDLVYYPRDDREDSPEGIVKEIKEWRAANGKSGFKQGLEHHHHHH
Kind of assay: SPR.

A further assay concerns the target colE^des1. As to the kind of experiment: SPR.
Assay [7] has as its target T3, Im^wt2. As to the kind of experiment: SPR.
The target of assay [8] is T3, Im^wt2. As to the kind of experiment: SPR.
The target in assay [9] is T3, Im^wt2. Kind of assay: value from previous stopped-flow measurements.
Assay [10] has as its target colE of designed pair 5 (cognate colE of Im^des5). Kind of assay: SPR; two-state reaction fit.
Assay [11] shares this target. Kind of assay: SPR; two-state reaction fit, koff1.
For assay [12] the target is unchanged. Kind of assay: SPR; two-state reaction fit, koff2.
A further assay addresses colE^des2. As to the kind of experiment: SPR.

B1: Im^des6 (designed binder)
chain: MELKHSISDYTEAEFLEFVKKIFSQGRLEETRPLVEEFERLTEHPDGSDLVYYPRDDREDSPEGIVKEIKEWRAANGKSGFKQGLEHHHHHH
B1 came in with a Kd in assay [1] of 161 nM. For the same molecule, the koff is 0.29 s⁻¹ in assay [2] and 0.00026 s⁻¹ in assay [3].

B2: colE^des7 (designed binder)
chain: MESKRNKPGKATGKGKPVGDKWLDDAGKDSGAPIPDRIADKLRDKEFKNFDDFRKKFWEEVSKDPDLAKQFKRSNRKRIQQGYAPFAPQKDQVGGRTTFELHHDKPISQDGGVYDMNNIRVTTPKRAIDIHRGK
Take B2: the koff in the assay with Im^des7 [4] turned out to be 0.014 s⁻¹; with Im^des7 [5] it was 0.0014 s⁻¹.

B3: Im^des4 (designed binder)
chain: MELKHSISDYTEAEFLEFVKKIDLASSGGGGNELLSRALVEEFERLTEHPDGSDLIYYPRDDREDSPEGIVKEIKEWRAANGKSGFKQGLEHHHHHH
In turn, B3 had a Kd with colE^des8 greater than 100000 nM.

B4: colE^des3 (designed binder)
chain: MESKRNKPGKATGKGKPVGDKWLDDAGKDSGAPIPDRIADKLRDKEFKNFDDFRKKFWKEVAKDPDLAKQFSKANQRNIKDGNAPFARESDQVGGRTTYELHHDKPISQDGGVYDMNNIRVTTPKRAIDIHRGK
As for B4, the koff with Im^des3 worked out at 0.019 s⁻¹. The Kd with Im^wt2 [6] and in the assay with Im^des8 was greater than 100000 nM throughout.

B5: Im^des1 (designed binder)
chain: MELKHSISDYTEAEFLEFVKKIYSKGKLDQKLRWVEEFVRLTEHPSGSDLIYYPRDDREDSPEGIVKEIKEWRAANGKSGFKQGLEHHHHHH
The molecule B5 registered a koff with colE^des1 of 0.00033 s⁻¹.

B6: colE^wt2 (His127Ala) (enzyme)
chain: MESKRNKPGKATGKGKPVGDKWLDDAGKDSGAPIPDRIADKLRDKEFKNFDDFRKKFWEEVSKDPDLSKQFKGSNKTNIQKGKAPFARKKDQVGGRERFELHHDKPISQDGGVYDMNNIRVTTPKRAIDIHRGK
Consider B6, for which, in the assay with Im^wt2 [7], the koff worked out at 0.00016 s⁻¹. The Kd with Im^wt2 [8] was less than 0.1 nM; in the assay with Im^wt2 [9] it was 0.004 pM.

B7: Im^des5 (designed binder)
chain: MELKHSISDYTEAEFLEFVKKICNTDNENVQFKLVTEFERLTEHPDGSDLIYYPRDDREDSPEGIVKEIKEWRAANGKSGFKQGLEHHHHHH
For B7, the Kd in assay [10] stood at 35 nM. Also, the koff in assay [11] was 0.023 s⁻¹; in [12], 0.0011 s⁻¹.

B8: Im^des2 (designed binder)
chain: MELKHSISDYTEAEFLEFVKKIYNSTDEEKQKELVTEFERLTEHPSGSDLIYYPRDDREDSPEGIVKEIKEWRAANGKSGFKQGLEHHHHHH
On to B8, for which, in the assay with colE^des2, binding was put at a Kd of 0.32 nM and the koff stood at 0.00041 s⁻¹.
